How the values were obtained:
[1] = biological target: T1, Wnt9b binding to LRP6 E1E4 (Homo sapiens, UniProt O75581); experiment: Wnt9b binding to LRP6 E1E4 in presence of inhibitor; conditions: inhibitor 125 nM, Wnt 125 nM
T1 construct: construct E1E4-amino acids A20-Q1253 of LPR6; made in house; host or cells: Tni insect cells (baculovirus, secreted)
T1 sequence (O75581 20-1253): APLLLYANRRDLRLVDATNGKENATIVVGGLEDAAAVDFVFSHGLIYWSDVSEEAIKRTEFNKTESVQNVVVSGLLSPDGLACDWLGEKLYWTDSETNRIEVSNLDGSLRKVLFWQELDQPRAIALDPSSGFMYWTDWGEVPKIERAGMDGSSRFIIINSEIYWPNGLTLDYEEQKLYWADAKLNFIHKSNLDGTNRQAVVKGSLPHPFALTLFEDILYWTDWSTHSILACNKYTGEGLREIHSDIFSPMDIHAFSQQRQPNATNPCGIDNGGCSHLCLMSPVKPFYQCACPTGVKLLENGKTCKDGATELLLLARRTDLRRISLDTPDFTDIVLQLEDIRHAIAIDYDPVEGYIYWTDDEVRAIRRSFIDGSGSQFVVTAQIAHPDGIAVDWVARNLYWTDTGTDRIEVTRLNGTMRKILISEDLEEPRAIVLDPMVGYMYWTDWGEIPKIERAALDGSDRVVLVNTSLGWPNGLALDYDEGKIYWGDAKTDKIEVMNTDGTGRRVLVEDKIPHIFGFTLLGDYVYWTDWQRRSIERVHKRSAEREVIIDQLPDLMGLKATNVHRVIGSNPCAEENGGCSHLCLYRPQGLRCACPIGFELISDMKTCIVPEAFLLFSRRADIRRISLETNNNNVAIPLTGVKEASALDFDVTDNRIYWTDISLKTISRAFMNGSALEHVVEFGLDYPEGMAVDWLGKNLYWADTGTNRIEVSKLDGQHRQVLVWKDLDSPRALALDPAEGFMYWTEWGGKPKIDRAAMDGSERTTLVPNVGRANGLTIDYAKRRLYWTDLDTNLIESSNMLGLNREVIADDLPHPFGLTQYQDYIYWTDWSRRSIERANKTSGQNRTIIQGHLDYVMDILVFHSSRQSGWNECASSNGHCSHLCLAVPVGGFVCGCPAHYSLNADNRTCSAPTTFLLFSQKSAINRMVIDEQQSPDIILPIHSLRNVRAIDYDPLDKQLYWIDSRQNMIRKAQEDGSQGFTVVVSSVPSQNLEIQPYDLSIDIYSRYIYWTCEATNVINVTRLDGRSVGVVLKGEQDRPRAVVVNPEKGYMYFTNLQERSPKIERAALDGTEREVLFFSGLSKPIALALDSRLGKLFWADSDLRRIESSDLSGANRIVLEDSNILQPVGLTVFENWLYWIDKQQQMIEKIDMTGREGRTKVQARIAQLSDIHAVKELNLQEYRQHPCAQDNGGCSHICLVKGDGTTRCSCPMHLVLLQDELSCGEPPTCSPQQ
Description: FIG. 11. Wnt binding to LRP6 E1E4 in the presence or absence of Dkk1 or sclerostin.
(§1) Binding kinetics were measured by biolayer interferometry using an Octet Red instrument (ForteBio) as previously described (11). Streptavidin (SA) biosensors were loaded with biotinylated hLRP6 in 50 mMTris, pH 8, 300 mM NaCl, 5% (v/v) glycerol, and 0.05% (w/v) Triton X-100. The loaded biosensors were washed in the same buffer before carrying out association and dissociation measurements for the indicated times. The Kd of each interaction was determined using steady state-analysis through the Octet Red software v6.3. Each reported value represents an average of three or more experiments at different concentrations, with a fitted experimental curve for which the square of the correlation coefficient (R^2) is above 0.96.
Wnt9b also binds to the E1E2 region but not to the E3E4 region (11). Accordingly, sclerostin inhibits Wnt9b binding to LRP6 E1E4 (FIG. 11). […] Accordingly, Dkk1 inhibits the binding of both Wnt3a and Wnt9b to LRP6 E1E4 (FIG. 11).

[2] = biological target: T2, LRP6 E1E2 variants with LRP5 BMD substitutions (Homo sapiens, UniProt O75581, N185S); experiment: Steady-state affinity for LRP6 E1E2 variants carrying LRP5 BMD substitutions; format: binding; conditions: LRP6 Asn185 to Ser vs wild type LRP6 E1E2
T2 construct: construct E1E2-amino acids A20-E631 of LPR6; made in house; host or cells: insect cells (Tni, baculovirus)
T2 sequence (O75581 20-631 N185S): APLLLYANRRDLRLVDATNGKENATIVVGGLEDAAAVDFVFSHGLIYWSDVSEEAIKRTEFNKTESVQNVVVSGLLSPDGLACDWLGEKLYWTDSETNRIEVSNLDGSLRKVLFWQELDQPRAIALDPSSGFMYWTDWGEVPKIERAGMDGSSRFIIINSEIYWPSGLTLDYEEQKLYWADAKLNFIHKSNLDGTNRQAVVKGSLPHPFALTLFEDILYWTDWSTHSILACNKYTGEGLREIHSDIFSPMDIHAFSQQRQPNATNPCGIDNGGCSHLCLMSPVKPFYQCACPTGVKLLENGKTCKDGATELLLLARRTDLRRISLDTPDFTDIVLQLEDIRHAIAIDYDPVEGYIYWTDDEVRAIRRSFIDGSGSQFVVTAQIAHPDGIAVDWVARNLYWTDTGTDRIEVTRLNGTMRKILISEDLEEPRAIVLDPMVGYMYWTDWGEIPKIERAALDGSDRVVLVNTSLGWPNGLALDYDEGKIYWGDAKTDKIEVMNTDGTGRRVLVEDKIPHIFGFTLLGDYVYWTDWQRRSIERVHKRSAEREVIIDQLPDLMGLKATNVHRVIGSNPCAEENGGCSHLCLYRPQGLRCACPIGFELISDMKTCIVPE
Description: FIG. 13. Introduction of LRP5 BMD substitutions into LRP6 E1E2 lowers affinity for Wnt inhibitors. The five substitutions characterized are indicated on the y-axis. Steady-state affinity measurements were made for Wnt9b, Dkk1, and sclerostin binding to each of the LRP6 variants.
as §1
Cells transfected with LRP5 variants carrying BMD mutations show reduced binding to sclerostin and are less sensitive to sclerostin inhibition of Wnt10b or Wnt6 signaling (70). To further test the effects of the BMD substitutions, we introduced several of them into LRP6 E1E2, with the results shown in FIG. 13. LRP6 E1E2 Gly158Val could not be expressed in insect cells. […] Importantly, not only is the binding to sclerostin affected (70), but the binding of Dkk1 to its E1 interaction site is also impaired.

| Substance | inhibition of Wnt9b binding to LRP6 E1E4 [1] | loss in affinity for LRP6 E1E2 Asn185Ser [2] [fold] |
| --- | --- | --- |
| Dkk1: Dickkopf 1 protein, Wnt pathway inhibitor, expressed in insect cells (NSNAIKN) | inhibits | 183 |
| sclerostin: Sclerostin protein, Wnt pathway inhibitor, expressed in insect cells (LPNAIGR) | inhibits | 59 |
